The values below come from patent US11692025 (UNIVERSITY COURT OF THE UNIVERSITY OF ABERDEEN, dated 2023).

The target of test [1] is T1, hen egg lysozyme (hen, UniProt P00698 19-147).
T1 construct: also called HEL
Kind of test: Biacore, monomeric VNAR.

Test [2] concerns the target T2, human serum albumin (human, UniProt P02768 25-609).
T2 construct: also called HSA; HAS
In words: phage and periprep ELISA on HSA; purified 6xHis-tagged VNAR. The method, then: The resultant mutational phage display libraries were rescued and selected twice using Nunc Maxisorp immunotubes. Following each pan, two 96-well plates of individual colonies were picked with a QPix2 XT (Genetix, San Jose, Calif., USA). Binding as monoclonal phage and periprep was evaluated by ELISA. All samples were processed with a Perkin Elmer MiniTrak robotic liquid handling system (Waltham, Mass., USA).

Test [3] concerns the target T1, hen egg lysozyme. Kind of test: BIAcore. A general note: Surface plasmon resonance follows binding to a sensor surface in real time, without labels.
In test [4] the target is T3, rat serum albumin (rat, UniProt P02770 25-608).
T3 construct: also called RSA
T3 sequence (P02770 25-608 limits assumed): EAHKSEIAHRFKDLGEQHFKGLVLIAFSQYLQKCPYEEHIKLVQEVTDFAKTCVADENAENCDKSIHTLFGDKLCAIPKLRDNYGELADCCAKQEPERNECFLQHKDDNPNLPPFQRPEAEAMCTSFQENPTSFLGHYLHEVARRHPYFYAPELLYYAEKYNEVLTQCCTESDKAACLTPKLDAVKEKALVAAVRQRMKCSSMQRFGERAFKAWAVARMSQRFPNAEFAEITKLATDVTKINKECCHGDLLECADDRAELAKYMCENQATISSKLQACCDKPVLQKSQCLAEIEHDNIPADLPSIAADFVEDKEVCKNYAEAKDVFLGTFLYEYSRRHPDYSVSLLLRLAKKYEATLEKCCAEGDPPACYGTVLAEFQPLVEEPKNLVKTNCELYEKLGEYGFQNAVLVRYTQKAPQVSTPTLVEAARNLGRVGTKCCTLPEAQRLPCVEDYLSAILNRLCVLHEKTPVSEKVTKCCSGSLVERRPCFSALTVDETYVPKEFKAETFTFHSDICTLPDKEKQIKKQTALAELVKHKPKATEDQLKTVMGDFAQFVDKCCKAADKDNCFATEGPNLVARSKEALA
In words: BIAcore, pH 6.0, monomeric 6xHis-tagged VNAR.

In test [5] the target is T4, mouse serum albumin (mouse, UniProt P07724 25-608).
T4 construct: also called MSA
T4 sequence (P07724 25-608 limits assumed): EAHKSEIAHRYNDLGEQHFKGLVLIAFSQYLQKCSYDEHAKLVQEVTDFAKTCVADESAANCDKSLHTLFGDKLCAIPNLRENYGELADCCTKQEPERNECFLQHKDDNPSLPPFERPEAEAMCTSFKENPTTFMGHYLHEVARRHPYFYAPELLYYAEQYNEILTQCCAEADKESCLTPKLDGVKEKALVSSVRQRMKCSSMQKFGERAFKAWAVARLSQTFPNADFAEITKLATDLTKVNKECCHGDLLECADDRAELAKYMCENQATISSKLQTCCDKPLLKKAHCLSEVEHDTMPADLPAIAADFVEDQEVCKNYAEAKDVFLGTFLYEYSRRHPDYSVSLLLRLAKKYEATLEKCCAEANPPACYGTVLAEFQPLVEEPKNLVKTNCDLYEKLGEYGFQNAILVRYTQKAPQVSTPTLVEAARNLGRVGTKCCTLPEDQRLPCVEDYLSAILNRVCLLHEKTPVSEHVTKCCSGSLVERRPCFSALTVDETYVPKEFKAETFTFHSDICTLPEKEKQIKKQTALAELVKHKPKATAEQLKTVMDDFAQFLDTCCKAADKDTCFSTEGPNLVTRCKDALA
In words: BIAcore, pH 6.0, monomeric 6xHis-tagged VNAR.

Test [6] deals with T2, human serum albumin. Kind of test: BIAcore, pH 6.0, monomeric 6xHis-tagged VNAR.
The target of test [7] is T3, rat serum albumin. In words: BIAcore, mean ± SE.
Test [8] has as its target T4, mouse serum albumin. In words: BIAcore, mean ± SE.
Test [9] deals with T2, human serum albumin. In words: BIAcore, mean ± SE.
The next test concerns the target T5, CSA (monkey, UniProt A2V9Z4 25-608, limits assumed).
T5 construct: also called monkey albumin
In words: BIAcore, mean ± SE.

Test [10] addresses T3, rat serum albumin. Kind of test: BIAcore, pH 7.4, monomeric 6xHis-tagged VNAR.
Test [11] concerns the target T4, mouse serum albumin. Kind of test: BIAcore, pH 7.4, monomeric 6xHis-tagged VNAR.
For test [12], the target named is T2, human serum albumin. Kind of test: BIAcore, pH 7.4, monomeric 6xHis-tagged VNAR.
The target in test [13] is T4, mouse serum albumin. Kind of test: BIAcore.
The target in test [14] is T2, human serum albumin. Kind of test: BIAcore.

T5 sequence (A2V9Z4 25-608 limits assumed): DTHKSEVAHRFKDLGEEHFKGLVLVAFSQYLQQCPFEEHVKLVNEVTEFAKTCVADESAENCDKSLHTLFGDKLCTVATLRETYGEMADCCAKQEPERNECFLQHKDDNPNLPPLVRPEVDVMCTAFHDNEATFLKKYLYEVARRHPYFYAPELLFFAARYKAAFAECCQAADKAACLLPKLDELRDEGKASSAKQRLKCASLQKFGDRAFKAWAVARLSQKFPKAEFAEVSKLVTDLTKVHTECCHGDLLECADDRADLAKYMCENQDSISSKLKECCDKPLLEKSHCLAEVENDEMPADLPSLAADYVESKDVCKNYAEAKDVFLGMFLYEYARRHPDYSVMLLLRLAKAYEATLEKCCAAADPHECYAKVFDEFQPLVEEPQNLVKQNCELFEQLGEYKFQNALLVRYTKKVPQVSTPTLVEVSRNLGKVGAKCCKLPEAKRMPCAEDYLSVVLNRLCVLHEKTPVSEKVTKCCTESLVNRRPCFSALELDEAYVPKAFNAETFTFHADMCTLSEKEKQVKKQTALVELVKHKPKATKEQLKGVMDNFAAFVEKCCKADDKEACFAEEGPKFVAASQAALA
T1 sequence (P00698 19-147): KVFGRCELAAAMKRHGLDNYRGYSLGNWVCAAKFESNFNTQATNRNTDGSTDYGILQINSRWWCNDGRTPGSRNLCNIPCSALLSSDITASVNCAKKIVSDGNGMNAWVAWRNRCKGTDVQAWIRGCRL

B1: 5A7IVabc-AAA-6xHis (VNAR)
VNAR: ARVDQSPSSLSASVGDRVTITCVLRDASYALGSTCWYQQKPGKAPKSISKGGRYSESVNSGSKSFTLTISSLQPEDFATYYCGLGVAGGYCDYALCSSRYAECGQGTKVEIKA
notes: Humanized 5A7 VNAR, monomeric; also called humanized 5A7-IVabc
Usually Kd stands for the free concentration of one partner at which half of the binding sites on the other are occupied at equilibrium, for simple one-to-one binding. A high value points to lower affinity. Usually koff stands for a measure of how fast the partners let go of each other. Lower therefore signals a long-lived complex. For orientation: kon means a measure of how fast the partners come together. In the test with hen egg lysozyme [1], B1 gave a Kd of 14.8 nM, a dissociation rate constant (koff) of 0.173 s⁻¹ and a kon of 1.17e+07 M⁻¹ s⁻¹.

B2: AC9 (VNAR)
VNAR: TRVDQSPSSLSASVGDRVTITCVLTDTSYPLYSTYWYRKNPGSSNKEQISISGRYSESVNKGTKSSTLTISSLQPEDFATYYCRAMGTNIWTGDGAGTKVEIK
notes: Variant of huE06 v1.10 from error-prone PCR
Turning to B2, the binding result with human serum albumin [2] is listed as “binds”.

B3: BA11 (VNAR)
VNAR: TRVDQSPSSLSASVGDRVTITCVLTDTSYPLYSTYWYRKNPGSSNKEQISISGRYSESVNKGTKSFTLTISSLQPEDSATYYCRAMSTNIWTGDGAGTKVEIK
notes: as for B2
As for B3, the binding result with human serum albumin [2] is on record as “binds”.

B4: AG11 (VNAR)
chain: TRVDQSPSSLSASVGDRVTITCVLTDTSYPLYSTYWYRKNPGSSNKEQISISGRYSESVNKGTKSFTLTISSLQPEDFATYYCRAMGTNIWTGDGAGTKVETK
notes: as for B2
Regarding B4, the binding result in the test with human serum albumin [2] was “binds”.

B5: BC3 (VNAR)
VNAR: TRVDQSPSSLSASVGDRVTITCVLTDTSYPLYSTYWYRKNPGSNNKEQISISGRYSESVNKGTKSFTLTISSLQPEDFATYYCRAMGTNIWTGDGAGTKVEIK
notes: as for B2
As to B5, the binding result with human serum albumin [2] is “binds”.

B6: BB10 (VNAR)
VNAR: TRVDQSPSSLSASVGDRVTITCVLTDTSYPLYSTYWYRKNPGSSNKEQISISGRYSESVNKGTKSFTLTISSLQPEDFATYYCRAMGTNFWTGDGAGTKVEIK
notes: as for B2
With B6, the binding result with human serum albumin [2] is recorded as “binds”.

B7: AH7 (VNAR)
VNAR: TRVDQTPSSLSASVGDRVTITCVLTDTSYPLYSTYWYRKNPGSSNKEQISISGRYSESVNKGTKSSTLTISSLQPEDFATYYCRAMGTNIWTGDGAGTKVEIK
notes: as for B2
For B7, in the test with human serum albumin [2], the binding result was “binds”.

B8: BE4 (VNAR)
VNAR: TRVDQSPSSLSASVGDRVTITCVLTDTSYSLYSTYWYRKNPGSSNKEQISISGRYSESVNKGTKSFTLTISSLQPEDFATYYCRAMGTNIWTGDGAGTKVEIK
notes: as for B2
Regarding B8, the binding result with human serum albumin [2] was “binds”.

B9: BB11 (VNAR)
VNAR: TRVDQSPSSLSASVGDRVTITCVLTDTSYPLYSTYWYRKNPGSSNKEQISISGRYSESVNKGTKSFTLTISSLQPEDFATYYCRAMATNIWTGDGAGTKVEIK
notes: as for B2
Turning to B9, in the test with human serum albumin [2], the binding result was “binds”.

B10: BD12 (VNAR)
VNAR: TRVDQSPSSLSASVGDRVTITCVLTDTSYPLYSTYWYRKNPGSSNKEQISISGRYSESVNKGTNSFTLTISSLQPEDFATYYCRAMGTNIWTGDGAGTKVEIK
notes: as for B2
As for B10, in the test with human serum albumin [2], the binding result was “binds”.

B11: AD4 (VNAR)
VNAR: TRVDQSPSSLSASVGDRVTITCVLTDTSYPLYSTYWYRKNPGSSNKEQISMSGRYSESVNKSTKSFTLTISSLQPEDFATYYCRAMGTNIWTGDGAGTKVEIK
notes: as for B2
As to B11, the binding result with human serum albumin [2] was “binds”.

B12: E06-AAA-6xHis (VNAR)
VNAR: TRVDQTPRTATRETGESLTINCVLTDTSYPLYSTYWYRKNPGSSNKEQISISGRYVESVNKGTKSFSLRIKDLTVADSATYICRAMGTNIWTGDGAGTVLTVNA
notes: Shark VNAR single domain against serum albumin; also called wild-type E06; monomeric 6xHis-tagged E06
Regarding B12, in the test with hen egg lysozyme [3], the binding result is “no binding”. Further, the Kd in the test with rat serum albumin [4] was 0.34 nM; in the test with mouse serum albumin [5], 0.33 nM; in the test with human serum albumin [6], 0.14 nM; in the test with rat serum albumin [7] it was 1.34 nM; with mouse serum albumin [8], 0.74 nM; with human serum albumin [9], 0.189 nM. Besides, the Kd was 0.219 nM with CSA, 1.45 nM with rat serum albumin [10], 0.83 nM with mouse serum albumin [11] and 0.19 nM with human serum albumin [12]. Moreover, the koff in the test with rat serum albumin [4] is 0.00433 s⁻¹; in the test with mouse serum albumin [5], 0.00323 s⁻¹; with human serum albumin [6] it was 0.00159 s⁻¹; with rat serum albumin [7], 0.00301 s⁻¹; with mouse serum albumin [8] it was 0.00171 s⁻¹; with human serum albumin [9], 0.000583 s⁻¹. The koff with CSA amounted to 0.000584 s⁻¹; with rat serum albumin [10], 0.0032 s⁻¹; with mouse serum albumin [11], 0.0018 s⁻¹; in the test with human serum albumin [12], 0.000655 s⁻¹. For the same molecule, the kon with rat serum albumin [4] is 1.26e+07 M⁻¹ s⁻¹; with mouse serum albumin [5] it was 9.85e+06 M⁻¹ s⁻¹; in the test with human serum albumin [6], 1.12e+07 M⁻¹ s⁻¹; with rat serum albumin [7], 2.24e+06 M⁻¹ s⁻¹; with mouse serum albumin [8], 2.32e+06 M⁻¹ s⁻¹; in the test with human serum albumin [9] it was 3.09e+06 M⁻¹ s⁻¹. Besides, the on-rate constant (kon) in the test with CSA was found to be 2.68e+06 M⁻¹ s⁻¹; with rat serum albumin [10] it was 2.21e+06 M⁻¹ s⁻¹; with mouse serum albumin [11] it was 2.18e+06 M⁻¹ s⁻¹; in the test with human serum albumin [12] it was 3.48e+06 M⁻¹ s⁻¹.

B13: 5A7-AAA-6xHis (VNAR)
VNAR: ARVDQTPRSVTKETGESLTINCVLRDASYALGSTCWYRKKSGEGNEESISKGGRYVETVNSGSKSFSLRINDLTVEDGGTYRCGLGVAGGYCDYALCSSRYAECGDGTAVTVNA
notes: Type I shark VNAR against hen egg lysozyme, monomeric; also called parental 5A7; anti-HEL 5A7
Regarding B13, the binding result in the test with mouse serum albumin [13] and with human serum albumin [14] was “no binding” in each case.

B14: 2V-E06 (VNAR, part only; not given: naive VNAR 2V and linker, not shown: small tags and cut ends)
chain, part: TRVDQTPRTATRETGESLTINCVLTDTSYPLYSTYWYRKNPGSSNKEQISISGRYVESVNKGTKSFSLRIKDLTVADSATYICRAMGTNIWTGDGAGTVLTVNAAAHHHHHH
For the molecule B14, the Kd came to 5.95 nM in the test with rat serum albumin [7], 2.49 nM with mouse serum albumin [8], 0.721 nM with human serum albumin [9] and 0.91 nM with CSA. Moreover, the koff in the test with rat serum albumin [7] is 0.00344 s⁻¹; in the test with mouse serum albumin [8] it was 0.00214 s⁻¹; with human serum albumin [9], 0.000641 s⁻¹; with CSA, 0.000682 s⁻¹. Also, the kon with rat serum albumin [7] came out at 623000 M⁻¹ s⁻¹; with mouse serum albumin [8], 862000 M⁻¹ s⁻¹; with human serum albumin [9] it was 953000 M⁻¹ s⁻¹; with CSA, 820000 M⁻¹ s⁻¹.
